Assay results: patent US8703915B2, “Mutant proteins and methods for producing them” (Heptares Therapeutics Limited, priority 2009, dated 2014)

Experiments:
[1] = system: A2A receptor; test: Thermostability of A2A receptor in NECA agonist-bound state, solubilised in DDM; type: physicochemical, human; conditions: NECA agonist-bound state (400 nM), solubilised in DDM
Description: (§1) In order to stabilise an agonist-bound conformation, a systematic Alanine-scan was performed in order to identify mutations that may stabilise the A2A receptor bound to its full agonist NECA. In this A2A agonist-bound study, L2.46 (L48A) is the most stabilising single mutant. When NECA is bound to the solubilised receptor, removing the L48 side chain (in A2A-L48A) dramatically increases the thermostability of the ligand-receptor complex resulting in an increase of 14° C. over the wild type receptor in the detergent DDM (FIG. 5a). […] We evaluated the signalling property of the A2A receptor by over-expressing the receptor in CHO cells. A2A agonist stimulation triggers the signal transduction through the Gs-trimeric complex and increases the intracellular cAMP level. The increase in intracellular cAMP can be detected by and quantified by using an anti-cAMP Mab antibody competition assay. […] However the signalling efficacy is reduced to 30% (FIG. 6).
A2AR-(2-316) expression was carried out by using the pRG/III-hs-MBP E. coli expression vector and DH5α cells. Cells were grown at 37° C. in 2 L flasks containing 500 mL of 2×TY medium supplemented with Ampicillin (100 μg/mL) and glucose (0.2% w/v). At OD600≈0.7, IPTG and theophylline were added at final concentrations respectively of 0.5 mM and 100 μM, and the temperature was reduced to 20° C. After 22 to 24 hours, cells were harvested in aliquots of 14 mL, centrifuged for 30 min and stored at −20° C. Both 5HT2C and M4 receptors were transiently expressed in HEK293T cells using GeneJuice transfection reagent used according to the manufacturers guidelines.
An aliquot of E. coli cells expressing wild type or mutant A2AR-(2-316) (14 mL) was thawed on ice and cells were resuspended in 500 μL of buffer A (50 mM Tris HCl mM/pH 7.4; 0.4 M NaCl, 250 μg/mL lysozyme (Sigma), 1 mg/mL DNAse I (Sigma), supplemented with complete EDTA-free Protease inhibitor cocktail (Roche)) and incubated 1 hour at 4° C. Samples were then sonicated 1 min at 4° C. using a cup-horn sonicator. […]

[2] = molecular target: T1, A2A receptor (Homo sapiens, UniProt P29274); test: Thermostability of A2A receptor in ZM241385 antagonist-bound state, solubilised in DDM; type: physicochemical; conditions: ZM antagonist bound state (100 nM)
T1 construct: A2AR-(2-316) expression was carried out by using the pRG/III-hs-MBP E. coli expression vector; MBP (named only in the vector name); made in house; host or cells: E. coli DH5alpha
Description: as §1
A2AR-(2-316) expression was carried out by using the pRG/III-hs-MBP E. coli expression vector and DH5α cells. Cells were grown at 37° C. in 2 L flasks containing 500 mL of 2×TY medium supplemented with Ampicillin (100 μg/mL) and glucose (0.2% w/v). At OD600≈0.7, IPTG and theophylline were added at final concentrations respectively of 0.5 mM and 100 μM, and the temperature was reduced to 20° C. […]

[3] = system: A2A receptor; test: cAMP functional assay (HTRF), NECA stimulation of CHO cells over-expressing A2A receptor; type: cell-based, human; conditions: intracellular cAMP, CHO cells
Description: as §1
This assay takes advantage of Homogeneous Time-Resolved Fluorescence (HTRF) using cAMP labeled with the dye d2 in presence of an anti-cAMP Mab labeled with Cryptate. The method is based on a competitive immunoassay between cAMP produced by cells and the cAMP labeled with the dye d2. CHO cells were grown using Glutamax Ham's F12, 10% FBS in 96-well plates, clear bottom and Black wall (Costar). Cells were seeded at a density of 12500 cells per well, grown overnight, washed with PBS and then transfected with 100 ng of pcDNA-3-A2A(2-316) pre-incubated with 0.3 μL of GeneJuice (Novagen) per well. After 48 hours of receptor expression, the medium was removed, the cells were washed in PBS then stimulated by using different NECA concentrations, in the presence of Rolipram (50 μM) and Adenosine deaminase in a total volume of 50 μL for 30 minutes. Dilution was realised in Hamf's F12/cAMP-d2 conjugate according to the manufacturer protocol, without serum. […] The plate was incubated at room temperature for 1 hour and then read using the Pherastar 96-well time-resolved fluorescence plate reader (Ex 340 nm; Em 665/620 nm).

[4] = system: adenosine A2A receptor; test: Antagonist binding to adenosine A2A NPxxY motif alanine mutants (Table 1); design: species or system human
Description: An alanine scan was carried out in a similar fashion on an adenosine A2A receptor along with the 5HT2C receptor in the presence of the antagonist Mesulergine. Both alanine scans were carried out in order to further stabilize the antagonist conformation. […] The motif in Adenosine A2A is NPFIY (SEQ ID NO: 364) and for the 5HT2C is NPLVY (SEQ ID NO: 363). Therefore mutations in this region of the receptor contain stabilising mutations specific to the agonist conformation and detrimentally effect antagonist binding.
Adenosine A2A receptor was solubilised from transiently transfected mammalian cells about 36 hours post transfection, in 50 mM Tris pH7.4/400 mM NaCl/0.5% DDM and protease inhibitor. Cell lysates were left at 4° C. on a rotator and then cleared by centrifugation at 13,200 rpm for 20 minutes at 4° C. Solubilised receptors were then purified on Ni-NTA beads and eluted with 50 mM histidine. The eluted receptor was used in radioligand binding assay. The Tm was determined by incubating 108 μl of the eluate with Zm241385 radioligand at a final concentration of 100 nM for one hour at 4° C. The six ligand incubations are then incubated at six different temperatures from 20° C. to 50° C., for thirty minutes. Receptor bound and free radioligand were separated using G25 Sephadex spin columns.

B1: A2A-WT: wild type human adenosine A2A receptor, A2AR-(2-316) (protein, UniProt P29274 2-316, looked up, fragment)
chain: PIMGSSVYITVELAIAVLAILGNVLVCWAVWLNSNLQNVTNYFVVSLAAADIAVGVLAIPFAITISTGFCAACHGCLFIACFVLVLTQSSIFSLLAIAIDRYIAIRIPLRYNGLVTGTRAKGIIAICWVLSFAIGLTPMLGWNNCGQPKEGKNHSQGCGEGQVACLFEDVVPMNYMVYFNFFACVLVPLLLMLGVYLRIFLAARRQLKQMESQPLPGERARSTLQKEVHAAKSLAIIVGLFALCWLPLHIINCFTFFCPDCSHAPLWLMYLAIVLSHTNSVVNPFIYAYRIREFRQTFRKIIRSHVLRQQEPFKA
B1 was tested, and the Tm [1] was 28.7±0.5 °C, the Tm [2] was 33.0±0.7 °C and the pEC50 [3] was 7.27±0.19. The “% of Wildtype binding” value ([4]; antagonist binding) was 100%, the DPM1 ([4]; antagonist binding, replicate 1) was 13513 DPM and the DPM2 ([4]; antagonist binding, replicate 2) was 12949 DPM. For the same molecule, the “Average - BG” value ([4]; average minus background) was 12731 and the Average ([4]; average of DPM1 and DPM2) was 13231.
